The supplement of paper PMC11246515
± gives the standard deviation of the averaged measurements.

Assay: total protein half-life in vivo (active degradation + dilution); higher = more stable protein
[1] = E. coli NCM3722 delta-clpP delta-lon delta-hslV, growth: N-lim chemostat, doubling time 6 h
[2] = E. coli NCM3722 delta-clpP, growth: N-lim chemostat, doubling time 6 h
[3] = E. coli NCM3722 delta-hslV, growth: N-lim chemostat, doubling time 6 h
[4] = E. coli NCM3722 delta-lon, growth: N-lim chemostat, doubling time 6 h
[5] = E. coli NCM3722 delta-smpB, growth: N-lim chemostat, doubling time 6 h
[6] = wild type E. coli NCM3722, growth: C-lim chemostat, doubling time 3 h
[7] = wild type E. coli NCM3722, growth: C-lim chemostat, doubling time 6 h
[8] = wild type E. coli NCM3722, growth: C-lim chemostat, doubling time 12 h
[9] = wild type E. coli NCM3722, growth: N-lim chemostat, doubling time 6 h
[10] = wild type E. coli NCM3722, growth: N-lim chemostat, doubling time 12 h
[11] = wild type E. coli NCM3722, growth: P-lim chemostat, doubling time 6 h
[12] = wild type E. coli NCM3722, growth: P-lim chemostat, doubling time 12 h

Row | Sequence | total protein half-life in vivo [1] | total protein half-life in vivo [2] | total protein half-life in vivo [3] | total protein half-life in vivo [4] | total protein half-life in vivo [5] | total protein half-life in vivo [6] | total protein half-life in vivo [7] | total protein half-life in vivo [8] | total protein half-life in vivo [9] | total protein half-life in vivo [10] | total protein half-life in vivo [11] | total protein half-life in vivo [12]
1 | MATPHINAEMGDFADVVLMPGDPLRAKYIAETFLEDAREVNNVRGMLGFTGTYKGRKISVMGHGMGIPSCSIYTKELITDFGVKKIIRVGSCGAVLPHVKLRDVVIGMGACTDSKVNRIRFKDHDFAAIADFDMVRNAVDAAKALGIDARVGNLFSADLFYSPDGEMFDVMEKYGILGVEMEAAGIYGVAAEFGAKALTICTVSDHIRTHEQTTAAERQTTFNDMIKIALESVLLGDKE [P0ABP8] | 5.35 ± 0.52 h | 4.9 ± 0.79 h | 4.26 ± 0.18 h | 5.28 ± 0.12 h | 4.44 ± 0.086 h | 3.14 ± 0.25 h | 5.99 ± 0.48 h | 12.6 ± 1.4 h | 4.38 ± 0.34 h | 7.48 ± 0.6 h | 5.65 ± 0.38 h | 13.1 ± 0.34 h
2 | MLHLFAGLDLHTGLLLLLALAFVLFYEAINGFHDTANAVATVIYTRAMRSQLAVVMAAVFNFLGVLLGGLSVAYAIVHMLPTDLLLNMGSSHGLAMVFSMLLAAIIWNLGTWYFGLPASSSHTLIGAIIGIGLTNALMTGTSVVDALNIPKVLSIFGSLIVSPIVGLVFAGGLIFLLRRYWSGTKKRARIHLTPAEREKKDGKKKPPFWTRIALILSAIGVAFSHGANDGQKGIGLVMLVLIGVAPAGFVVNMNATGYEITRTRDAINNVEAYFEQHPALLKQATGADQLVPAPEAGATQPAEFHCHPSNTINALNRLKGMLTTDVESYDKLSLDQRSQMRRIMLCVSDTIDKVVKMPGVSADDQRLLKKLKSDMLSTIEYAPVWIIMAVALALGIGTMIGWRRVATTIGEKIGKKGMTYAQGMSAQMTAAVSIGLASYTGMPVSTTHVLSSSVAGTMVVDGGGLQRKTVTSILMAWVFTLPAAVLLSGGLYWLSLQFL [P0AFJ7] | 6.99 ± 0.45 h | 6.5 ± 1.2 h | – | – | 6.14 ± 0.78 h | 3.761 ± 0.013 h | 6.37 ± 1.4 h | 14.4 ± 0.95 h | 6.13 ± 0.24 h | – | 6.54 ± 0.4 h | 12.6 ± 1 h
3 | MSIKEQTLMTPYLQFDRNQWAALRDSVPMTLSEDEIARLKGINEDLSLEEVAEIYLPLSRLLNFYISSNLRRQAVLEQFLGTNGQRIPYIISIAGSVAVGKSTTARVLQALLSRWPEHRRVELITTDGFLHPNQVLKERGLMKKKGFPESYDMHRLVKFVSDLKSGVPNVTAPVYSHLIYDVIPDGDKTVVQPDILILEGLNVLQSGMDYPHDPHHVFVSDFVDFSIYVDAPEDLLQTWYINRFLKFREGAFTDPDSYFHNYAKLTKEEAIKTAMTLWKEINWLNLKQNILPTRERASLILTKSANHAVEEVRLRK [P0A6I3] | 4.81 ± 0.35 h | 5.07 ± 0.72 h | 4.053 ± 0.029 h | 4.54 ± 0.22 h | 4.28 ± 0.39 h | 3.07 ± 0.17 h | 5.71 ± 0.51 h | 8.55 ± 0.56 h | 4.41 ± 0.7 h | 7.123 ± 0.068 h | 5.6077 ± 0.0014 h | 12.5 ± 0.64 h
4 | MISAFDIFKIGIGPSSSHTVGPMNAGKSFIDRLESSGLLTATSHIVVDLYGSLSLTGKGHATDVAIIMGLAGNSPQDVVIDEIPAFIELVTRSGRLPVASGAHIVDFPVAKNIIFHPEMLPRHENGMRITAWKGQEELLSKTYYSVGGGFIVEEEHFGLSHDVETSVPYDFHSAGELLKMCDYNGLSISGLMMHNELALRSKAEIDAGFARIWQVMHDGIERGMNTEGVLPGPLNVPRRAVALRRQLVSSDNISNDPMNVIDWINMYALAVSEENAAGGRVVTAPTNGACGIIPAVLAYYDKFRRPVNERSIARYFLAAGAIGALYKMNASISGAEVGCQGEIGVACSMAAAGLTELLGGSPAQVCNAAEIAMEHNLGLTCDPVAGQVQIPCIERNAINAVKAVNAARMAMRRTSAPRVSLDKVIETMYETGKDMNDKYRETSRGGLAIKVVCG | 4.67 h | – | – | – | – | – | 2.13 h | 2.34 h | – | – | – | –
5 | MKQVCVLGNGQLGRMLRQAGEPLGIAVWPVGLDAEPAAVPFQQSVITAEIERWPETALTRELARHPAFVNRDVFPIIADRLTQKQLFDKLHLPTAPWQLLAERSEWPAVFDRLGELAIVKRRTGGYDGRGQWRLRANETEQLPAECYGECIVEQGINFSGEVSLVGARGFDGSTVFYPLTHNLHQDGILRTSVAFPQANAQQQAQAEEMLSAIMQELGYVGVMAMECFVTPQGLLINELAPRVHNSGHWTQNGASISQFELHLRAITDLPLPQPVVNNPSVMINLIGSDVNYDWLKLPLVHLHWYDKEVRPGRKVGHLNLTDSDTSRLTATLEALIPLLPPEYASGVIWAQSKFG | 5.64 ± 0.49 h | 4.96 ± 1.2 h | 3.96 ± 0.012 h | – | 4.51 ± 0.38 h | 3.19 ± 0.41 h | 6.83 ± 1.3 h | 9.39 ± 0.78 h | 4.393 ± 0.015 h | 8.59 ± 3.2 h | 6.17 ± 0.59 h | 12.1 ± 0.25 h
6 | MKSTSDLFNEIIPLGRLIHMVNQKKDRLLNEYLSPLDITAAQFKVLCSIRCAACITPVELKKVLSVDLGALTRMLDRLVCKGWVERLPNPNDKRGVLVKLTTGGAAICEQCHQLVGQDLHQELTKNLTADEVATLEYLLKKVLP | 4.66 ± 0.39 h | 6.71 h | > 8 h | – | 4.66 ± 0.12 h | – | 5.68 ± 0.62 h | 11.7 ± 2.1 h | 4.4 ± 0.066 h | 7.75 ± 0.37 h | 3.68 h | 10.8 h
